Reference: US20170002074A1
Each block holds one substance with its values, some of them ahead of it.

Columns and labels:
[1] = target: huCD33 R69G variant (human) (UniProt P20138); assay: FACS, control antibody, on 293AD cells labelled 'SNPG69R', taken as the SNP variant of paragraph 650
Human CD33 (human) [2] = target: Human CD33 (human) (UniProt P20138); assay: FACS with WM53-APC (BD-Bioscience) on HEK293AD cells stably expressing rhCD33 (positive control stain)
[3] = target: Full-length huCD33 membrane construct with double mutation S102A/S115A (human) (UniProt P20138); assay: FACS with WM53-APC (BD-Bioscience) on 293AD cells transiently expressing huCD33 S102A/S115A
Sequence of Full-length huCD33 membrane construct with double mutation S102A/S115A (human) (P20138 18-364 S102A/S115A): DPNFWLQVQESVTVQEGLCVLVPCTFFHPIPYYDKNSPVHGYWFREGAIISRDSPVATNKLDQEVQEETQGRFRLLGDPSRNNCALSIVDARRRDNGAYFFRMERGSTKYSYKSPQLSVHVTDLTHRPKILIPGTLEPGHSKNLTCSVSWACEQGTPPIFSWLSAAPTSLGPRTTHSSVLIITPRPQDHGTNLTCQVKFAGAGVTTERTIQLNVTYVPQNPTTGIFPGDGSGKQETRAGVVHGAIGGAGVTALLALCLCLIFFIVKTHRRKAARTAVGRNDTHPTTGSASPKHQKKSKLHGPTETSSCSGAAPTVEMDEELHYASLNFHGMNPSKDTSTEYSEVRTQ

[4] = target: Full-length huCD33 membrane construct with single mutation S115A (human) (UniProt P20138); assay: FACS with WM53-APC (BD-Bioscience) on 293AD cells transiently expressing huCD33 S115A
Sequence of Full-length huCD33 membrane construct with single mutation S115A (human) (P20138 18-364 S115A): as the sequence (P20138 18-364 S102A/S115A) above, with A85S counted along it

[5] = target: Full-length huCD33 membrane construct with single mutation S115A (human) (UniProt P20138); assay: FACS with APC-labelled isotype control on 293AD cells transiently expressing huCD33 S115A
[6] = target: Construct-88B: CD33 Ig-like V (M17-V136 including spacer H137-H143) linked to an irrelevant Ig-like C (including TM/CD) (human); assay: FACS on 293 cells transiently transfected with construct 88B, control antibody
Sequence of Construct-88B: CD33 Ig-like V (M17-V136 including spacer H137-H143) linked to an irrelevant Ig-like C (including TM/CD) (human) (chain, as listed by the source limits assumed, form in doubt): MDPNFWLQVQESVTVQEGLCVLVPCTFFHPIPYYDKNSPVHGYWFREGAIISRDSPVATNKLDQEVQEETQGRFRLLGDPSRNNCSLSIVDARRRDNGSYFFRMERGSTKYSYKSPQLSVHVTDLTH

[7] = target: Construct-88: irrelevant Ig-like V linked to a CD33 Ig-like C (R144-Q228 including TM/CD L229) (human); assay: FACS on 293 cells transiently transfected with construct 88, control antibody
Sequence of Construct-88: irrelevant Ig-like V linked to a CD33 Ig-like C (R144-Q228 including TM/CD L229) (human) (P20138 144-364): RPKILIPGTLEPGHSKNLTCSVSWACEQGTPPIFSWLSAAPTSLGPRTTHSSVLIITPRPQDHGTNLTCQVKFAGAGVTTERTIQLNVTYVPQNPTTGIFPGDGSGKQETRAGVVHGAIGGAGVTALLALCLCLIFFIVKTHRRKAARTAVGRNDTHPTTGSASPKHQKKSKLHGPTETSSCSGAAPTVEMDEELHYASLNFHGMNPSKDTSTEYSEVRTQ

[8] = target: Full-length huCD33 membrane construct with single mutation S115A (human) (UniProt P20138); assay: FACS with Dylight 650 labelled isotype control on 293AD cells transiently expressing huCD33 S115A
Human CD33 (human) [9] = target: Human CD33 (human) (UniProt P20138); assay: FACS on 293-hCD33 cells, isotype control of the competition experiment

Sequence of huCD33 R69G variant (human) (P20138 18-364 R69G): as the sequence (P20138 18-364 S102A/S115A) above, with R52G, A85S, A98S counted along it
Sequence of Human CD33 (human) (P20138 18-364): as the sequence (P20138 18-364 S102A/S115A) above, with A85S, A98S counted along it

Substance: WM53 (antibody)
Geom. Mean:FL4-H (Human CD33 (human) [2]): 1280 | Geom. Mean:FL4-H [3]: 500 | Geom. Mean:FL4-H [4]: 609

Substance: Iso-APC (antibody)
Geom. Mean:FL4-H [5]: 2.52

Substance: hgD-650 (antibody)
Geom. Mean:FL4-H [6]: 16.7 | Geom. Mean:FL4-H [7]: 13.9

Substance: gD (antibody)
Geom. Mean:FL1-H [1]: 5.83

Now from value to substance:

Geom. Mean:FL1-H [1]: 5.78
Substance: mIgG1 (antibody)

Geom. Mean:FL4-H [8]: 8.67
Substance: Iso-650 (antibody)

Geom. Mean:FL1 (Human CD33 (human) [9]): 3.58
Substance: Isotype (antibody)
